Laboratory results: patent publication US20100093086A1 (RESEARCH FOUNDATION OF STATE UNIVERSITY OF NEW YORK, published 2010)
Bridges are numbered along the chain shown (N, C = ends). [ ]: non-standard residue; d: D form. code β = tetrazole-bearing lysine Lys(tetrazole), tetrazole half of pyrazoline cross-linker; L3 = not defined here

T1: GST-MDMX containing full-length human MDMX (human, UniProt O15151 1-490)
T1 construct: mature; Expressed in E. coli and purified on glutathione-agarose; not shown: GST tag
T1 sequence (looked up): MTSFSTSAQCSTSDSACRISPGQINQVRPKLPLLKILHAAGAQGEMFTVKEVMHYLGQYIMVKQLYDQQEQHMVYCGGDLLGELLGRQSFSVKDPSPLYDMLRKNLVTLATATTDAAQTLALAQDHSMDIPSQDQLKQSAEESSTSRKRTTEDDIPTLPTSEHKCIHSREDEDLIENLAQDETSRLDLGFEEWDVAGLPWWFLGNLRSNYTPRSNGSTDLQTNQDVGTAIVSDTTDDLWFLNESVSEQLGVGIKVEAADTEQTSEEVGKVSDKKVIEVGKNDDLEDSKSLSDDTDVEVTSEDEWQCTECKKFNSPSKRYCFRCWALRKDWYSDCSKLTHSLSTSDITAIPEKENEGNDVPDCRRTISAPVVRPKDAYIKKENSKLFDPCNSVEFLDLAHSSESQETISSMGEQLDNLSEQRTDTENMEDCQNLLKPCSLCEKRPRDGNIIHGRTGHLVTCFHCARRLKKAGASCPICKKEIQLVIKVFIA

B1: sPMI-4 (peptide)
peptide: Ac-TSFXRYWXRLSP-NH2
modifications: bridge 4-8 via L3; not fully specified (residues 4, 8); printed as TSFαRYWβRLSP; also: pyrazoline cross-linker L3 between α and β
notes: Stapled peptide
B2: sPMI-2 (peptide)
peptide: Ac-TSFAXYWNXLSP-NH2
modifications: bridge 5-9 via L3; not fully specified (residues 5, 9); printed as TSFAαYWNβLSP; also: pyrazoline cross-linker L3 between α and β
notes: Stapled peptide
B3: sPMI-5 (peptide)
peptide: Ac-TSFXQYW[code β]RLRP-NH2
modifications: bridge 4-8; not fully specified (residue 4, bridges); printed as TSFαQYWβRLRP; also: pyrazoline cross-linker L3 between α and β
notes: Stapled peptide
B4: sPMI-3 (peptide)
peptide: Ac-TSFXQYWNLLXP-NH2
modifications: bridge 4-11 via L3; not fully specified (residues 4, 11); printed as TSFαQYWNLLβP; also: pyrazoline cross-linker L3 between α and β
notes: Stapled peptide

The binders below were run against T2, GST-MDM2 containing full-length human MDM2 (human, UniProt Q00987 1-491) (assay: competition ELISA: peptide + GST-MDM2 on plated His6-p53).
T2 construct: mature; Expressed in E. coli and purified on glutathione-agarose; also called GST-HDM2; not shown: GST tag
T2 sequence (Q00987 whole entry): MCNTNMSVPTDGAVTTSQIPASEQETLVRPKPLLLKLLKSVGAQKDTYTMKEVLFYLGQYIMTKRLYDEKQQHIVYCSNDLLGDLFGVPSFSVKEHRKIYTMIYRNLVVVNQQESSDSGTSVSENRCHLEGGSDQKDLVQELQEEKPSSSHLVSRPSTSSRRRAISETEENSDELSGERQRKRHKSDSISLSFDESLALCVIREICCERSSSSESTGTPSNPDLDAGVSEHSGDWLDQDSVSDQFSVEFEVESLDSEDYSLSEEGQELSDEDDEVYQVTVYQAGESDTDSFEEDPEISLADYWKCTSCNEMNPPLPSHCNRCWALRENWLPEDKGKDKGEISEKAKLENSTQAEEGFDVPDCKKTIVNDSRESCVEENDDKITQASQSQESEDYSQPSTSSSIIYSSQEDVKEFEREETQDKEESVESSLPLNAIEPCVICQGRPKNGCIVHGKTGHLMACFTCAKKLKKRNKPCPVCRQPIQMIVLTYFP

IC50 [nM] | Binder
87 | Ac-LTFXHYWXQLTS-NH2 (bridge 4-8 via L3; not fully specified (residues 4, 8); printed as LTFαHYWβQLTS, Stapled peptide) [sPDI-4]
55 | Ac-LTFXHYWXRLTS-NH2 (bridge 4-8 via L3; not fully specified (residues 4, 8); printed as LTFαHYWβRLTS, Stapled peptide) [sPDI-8]
179 | Ac-LTFXHYWXRLRS-NH2 (bridge 4-8 via L3; not fully specified (residues 4, 8); printed as LTFαHYWβRLRS, Stapled peptide) [sPDI-9]
1230 | B1
1080 | B2
597 | B3
23 | B4

The binders below were run against T1, GST-MDMX containing full-length human … (assay: competition ELISA: peptide + GST-MDMX on plated His6-p53).
Procedure: ELISA plates were incubated with 2.5 μg/ml His6-p53 in phosphate-buffered saline (PBS) for 16 h. After washing with PBS+0.1% Tween 20 (PBST), the plates were blocked with PBS+5% nonfat dry milk+0.1% Tween 20 (PBSMT) for 0.5 hour. The peptides were dissolved in DMSO. […] The plates were developed by incubation with TMB peroxidase substrate (KPL) and measured by absorbance at 450 nm.

IC50 [nM] | Binder
390 | Ac-LTFXHYWXQLTS-NH2 (bridge 4-8 via L3; not fully specified (residues 4, 8); printed as LTFαHYWβQLTS, Stapled peptide) [sPDI-4]
231 | Ac-LTFXHYWXRLTS-NH2 (bridge 4-8 via L3; not fully specified (residues 4, 8); printed as LTFαHYWβRLTS, Stapled peptide) [sPDI-8]
525 | Ac-LTFXHYWXRLRS-NH2 (bridge 4-8 via L3; not fully specified (residues 4, 8); printed as LTFαHYWβRLRS, Stapled peptide) [sPDI-9]
1840 | B1
3650 | B2
298 | B3
1490 | B4
